B1: TPR 5TU (parent)
chain: GGAUCUUCUCGAUCUAACAAAAAAGACAAAUCUGCCACAAAGCUUGAGAGCAUCUUCGGAUGCAGAGGCGGCAGCCUUCGGUGGCGCGAUAGCGCCAACGUUCUCAACUAUGACACGCAAAACGCGUGCUCCGUUGAAUGGAGUUUAUCAUG

Fewer inactive variants are shown than the library holds. Some results are limits rather than exact numbers.

The series covers variants of B1. Description: polymerase ribozyme fitness, log enrichment relative to wild type (log ratio); higher = more active; in vitro selection for triplet polymerase activity. The method, boiled down: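 Fitness compares each genotype's enrichment to that of the wild type on a logarithmic scale, averaging replicates with inverse-variance weights. The logarithm is base 2. Enrichment came from Illumina sequencing of input and output libraries after one triplicate round of in vitro selection, which included frozen incubation at −7 °C, of PCR-built, transcribed mutant libraries of each subunit of a heterodimeric triplet polymerase ribozyme. Only genotypes with ≥10 input reads and ≥1 read per output were kept.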
A30G A40G C54A C85U G117C: the “polymerase ribozyme fitness (log ratio)” value was no more than -4.2.

On to A29G U55A C95U U101C U109A G133A, for which the “polymerase ribozyme fitness (log ratio)” value is no more than -4.2. With A29U U45G G86C U148A the figure was no more than -4.2. As for A30C G92C G126A, the figure is no more than -4.2; as for A30G A60G C93A C105G C132A A142U, no more than -4.2. With A30U A52G G58A G70U C79U G83A C93U the figure was no more than -4.2.

With A29G G84U G117A, the “polymerase ribozyme fitness (log ratio)” value is no more than -4.2. With A30G G50C C51A G84A C87G G100U A121G the figure was no more than -4.2; with A30C C85U, -4.09; with A30C G84A A115C C149U, no more than -4.2. As for A29U U44A G58C U61A G71U U77A U82G G140C, the figure is no more than -4.2; as for A30C C96A U135A A137U, no more than -4.2; as for A29G C36A A47C G50C C76A C85U C118A A121U U135G, no more than -4.2. Take A29U A41U C75U C123U G143U U145G: the “polymerase ribozyme fitness (log ratio)” value was no more than -4.2. With A29G A47C G70A C85G A89U A138C A142U the figure was no more than -4.2; with A30U G86A, -3.95; with A29U C36U G62A U109G, no more than -4.2. Regarding A30U A49C A60U U77C U148A, the “polymerase ribozyme fitness (log ratio)” value is no more than -4.2. With A30C C93U A106U C131A A142C the figure was -4.12; with A30U C57A A73G G81C G92U G141A U148A, no more than -4.2; with A30C C54U C96G G141A, no more than -4.2. With A29U U109G C149G the figure was no more than -4.2; with A29U U31G C36U C69G G84A, no more than -4.2.

Regarding A30G C87U U101A U109C A115U A120U A122U U145G G152A, the “polymerase ribozyme fitness (log ratio)” value is no more than -4.2. As for A29U G133C, the figure is no more than -4.2. With A29C G58A G83A C118U the figure was no more than -4.2; with A30C A52C C85U C99A A115U C131U G141C, no more than -4.2. Regarding A30C C72G G86U A106G U144C C149G, the “polymerase ribozyme fitness (log ratio)” value was no more than -4.2. As for A29U U134A, the figure is no more than -4.2.

Take A30C C54U C69A G70A A137C: the “polymerase ribozyme fitness (log ratio)” value was no more than -4.2. As for A30U C38A C75G C85U G141C, the figure is no more than -4.2; as for A30U A47C G50A C54G G92C C123G, no more than -4.2; as for A29G A49C G67A C114U U127G, no more than -4.2. As for A29U A97U A115U G124C U134C U148A, the figure is no more than -4.2; as for A29G C35U U145C, -3.89; as for A30G U44C G88C C105A, no more than -4.2. With A29U C96U A106C U127G the figure was no more than -4.2; with A29C G62U G80C C118A, no more than -4.2. With A29U U44A A49C C57U G88U, the “polymerase ribozyme fitness (log ratio)” value is no more than -4.2. Turning to A30G G71A C85G G141C, the “polymerase ribozyme fitness (log ratio)” value is no more than -4.2. With A30C C93A A97G the figure was no more than -4.2. Turning to A29U G65A C87A A91C U109G, the “polymerase ribozyme fitness (log ratio)” value is no more than -4.2. Turning to A29U A41C A52C C87U U102C G136A G143C U146A, the “polymerase ribozyme fitness (log ratio)” value is no more than -4.2.

Regarding A30U C87G C116A G141A, the “polymerase ribozyme fitness (log ratio)” value is no more than -4.2.

For the variant A30G C57U C63U G68C C95U A120C C125G, the “polymerase ribozyme fitness (log ratio)” value is no more than -4.2. As for A30U U44G A52C C85G A107G G126C U134A A147G, the figure is no more than -4.2; as for A30U A91U, no more than -4.2. For the variant A29G A52G, the “polymerase ribozyme fitness (log ratio)” value was -4.08.

For A29U U55G C57U G67C A98G, the “polymerase ribozyme fitness (log ratio)” value is no more than -4.2. With A30U A52U C93A the figure was no more than -4.2; with A29G C51U G62A G84A U139G, no more than -4.2.

With A29G C57A G58U C95U C125G, the “polymerase ribozyme fitness (log ratio)” value was no more than -4.2. A30G G48U C76G C96U A97C U134G: the “polymerase ribozyme fitness (log ratio)” value was no more than -4.2. As for A29U A73G C93A G128U G140U, the figure is no more than -4.2; as for A30C G59C A60C C93A C99U C114A, no more than -4.2. With A30G C87G U101C A122G the figure was no more than -4.2.

Turning to A29U U111C C114G G140U, the “polymerase ribozyme fitness (log ratio)” value was no more than -4.2. As for A29U G58C G84A C105U A113C, the figure is no more than -4.2.

Turning to A30C G48C A60G, the “polymerase ribozyme fitness (log ratio)” value was no more than -4.2. Take A29U A60G C76A: the “polymerase ribozyme fitness (log ratio)” value was no more than -4.2. With A29U C32U G62A G67U C75G U82G A142U A150G the figure was -3.64. With A29G A47U A49U G94A C131U the figure was no more than -4.2; with A29U G48U U61G G83C, no more than -4.2.

As for A29U C36U, the “polymerase ribozyme fitness (log ratio)” value was no more than -4.2.

Consider A29G C93A A122G G124A, for which the “polymerase ribozyme fitness (log ratio)” value is no more than -4.2. With A30U C43G A47G U53G C72A G140A the figure was no more than -4.2. As for A30U C32G U55G G74A A89G C93A G133U A142C, the figure is no more than -4.2; as for A29U C32A A41U G71C C85U C87U A98C, no more than -4.2; as for A30U G62U U90G C95A A107C C118A A142G, no more than -4.2.

With A30U C85U A97U G128A G140C C149U, the “polymerase ribozyme fitness (log ratio)” value is no more than -4.2. With A30G A47U A64G G94A the figure was -3.57; with A30U C69U G83A, no more than -4.2; with A29U C99A, -4.17. As for A29U U53G G81A G88C, the figure is no more than -4.2; as for A30U G84A C96U U144A, no more than -4.2.

As for A29U G50A G58C A60C G88A C116G U139A G141C G143C, the “polymerase ribozyme fitness (log ratio)” value is -3.79. For the variant A29U A49G C54G G59U A91U C96A G117U A142U, the “polymerase ribozyme fitness (log ratio)” value is no more than -4.2.

As for A29C G65A C108U C116G C125A U146G A150G, the “polymerase ribozyme fitness (log ratio)” value is no more than -4.2. As for A29U A142G C149U, the figure is no more than -4.2; as for A30G C51U G68C A121G U127C, no more than -4.2; as for A30G G48A C54U C85U, no more than -4.2.

For A30G G141C, the “polymerase ribozyme fitness (log ratio)” value was -3.51. As for A30U A91U U104G, the figure is no more than -4.2.
